The results in this text go back to patent US20250188153A1.

In assay [1] the target is hMPV B2 F protein (his-tagged, not trypsin treated) (human metapneumovirus). Kind of assay: BLI epitope binning on hMPV B2 F; first mAb MPV314, second mAb MPE8.
For assay [2] the target is unchanged. Kind of assay: BLI epitope binning on hMPV B2 F; first mAb MPV414, second mAb MPE8.
Assay [3] has the same target. Kind of assay: BLI epitope binning on hMPV B2 F; first mAb MPV477, second mAb MPE8.
For assay [4] the target is unchanged. The experiment in a line: BLI epitope binning on hMPV B2 F; first mAb MPV481, second mAb MPE8.
Assay [5] has the same target. Kind of assay: BLI epitope binning on hMPV B2 F; first mAb MPV483, second mAb MPE8.
For assay [6] the target is unchanged. Kind of assay: BLI epitope binning on hMPV B2 F; first mAb MPV487, second mAb MPE8.
For assay [7] the target is unchanged. Kind of assay: BLI epitope binning on hMPV B2 F; first mAb MPV488, second mAb MPE8.
Assay [8] has the same target. The experiment in a line: BLI epitope binning on hMPV B2 F; first mAb MPV503, second mAb MPE8.
The target in assay [9] is hMPV A1 F (human metapneumovirus). Kind of assay: ELISA on coated recombinant protein, OD 405 nm.
Assay [10] deals with hMPV A1 F monomer (human metapneumovirus). The experiment in a line: ELISA on coated recombinant protein, OD 405 nm.
Assay [11] addresses hMPV A1 F trimer (heated) (human metapneumovirus). Kind of assay: ELISA on coated recombinant protein, OD 405 nm.
In assay [12] the target is hMPV A2 F (human metapneumovirus). Kind of assay: ELISA on coated recombinant protein, OD 405 nm.
The target of assay [13] is hMPV B1 F (human metapneumovirus). Kind of assay: ELISA on coated recombinant protein, OD 405 nm.
In assay [14] the target is hMPV B2 F GCN4 (human metapneumovirus). The experiment in a line: ELISA on coated recombinant protein, OD 405 nm.
The target of assay [15] is hMPV B2 F monomer (human metapneumovirus). Kind of assay: ELISA on coated recombinant protein, OD 405 nm.
In assay [16] the target is hMPV B2 F protein (his-tagged, not trypsin treated) (human metapneumovirus). Kind of assay: ELISA on coated recombinant protein, OD 405 nm.
The target in assay [17] is hMPV B2 F trimer (heated) (human metapneumovirus). The experiment in a line: ELISA on coated recombinant protein, OD 405 nm.
Assay [18] concerns the target DS-CavEs2-IPDS (human metapneumovirus). Kind of assay: cryo-EM structure.

B1: MPE8 (antibody, V domains shown)
VH: EVQLVESGGGLVKPGGSLRLSCAASGFTFSSYSMNWVRQAPGKGLEWVSSISASSSYSDYADSAKGRFTISRDNAKTSLFLQMNSLRAEDTAIYFCARARATGYSSITPYFDIWGQGTLVTVSS
VL: QSVVTQPPSVSGAPGQRVTISCTGSSSNIGAGYDVHWYQQLPGTAPKLLIYDNNNRPSGVPDRFSASKSGTSASLAITGLQAEDEADYYCQSYDRSLSGVFGTGTKVTVL
As to B1, the % binding of the second mAb after the first mAb in [1] worked out at 4%; in assay [2] it was 2%; in assay [3] it was 1%; in assay [4], 72%; in assay [5], 71%; in [6], 4%. The % binding of the second mAb after the first mAb in assay [7] is 42%; in [8], -1%.

B2: MPV486 (antibody, V domains shown)
VH: EVQLVESGGHLVQSGGSLRLSCAASGFTFSNYILNWVRQAPGKGLEWISYITGGSSAIYYADSVKGRFTISRDDAKNSLYLQMNNLRAEDTAVYYCARSHGYDSSGYYYYFAMDVWGQGTTVTVSS
VL: QSVLTQPPSASGTPGQRVTISCSGSNSNIESNTVNWYQQIPGTAPKLLIYSDNRRPSGVPDRFSGSKSGTSASLAISGLQSEDEADYYCAAWDDSLIGYVFGTGTKVTV
For the molecule B2, the EC50 was found to be 0.053 µg/mL in assay [9]; 0.088 µg/mL in [10]; 0.22 µg/mL in [11]; 0.043 µg/mL in [12]; 0.1 µg/mL in assay [13]; 0.1 µg/mL in assay [14]. Also, the concentration for a half-maximal effect (EC50) in assay [15] was 0.11 µg/mL; in [16], 0.23 µg/mL; in [17], 0.24 µg/mL.

B3: MPV483 (antibody, V domains shown)
VH: EVQLVQSGAELKKPGSSVKVSCKASGDTFSNYAISWVRQAPGQGLEWMGGIIPIYNTANYAQKFQGRVTLTADESTSTAYMELSSLRSEDTAVYYCARDVRNNWSVLRGARYYYYGMDVWGQGTTVTVSS
VL: DIVMTQTPFSLSASVGDRVTVTCRASQDISNSLAWFQQKPGKAPKSLIYAASSLQSGVPTRFSGGGSGTDFTLTISSLQPEDFATFYCLQYDSFPPTFGGGTKVEI
In the case of B3, the 50% effective concentration (EC50) stood at 0.12 µg/mL in assay [9]; 0.16 µg/mL in assay [10]; 0.27 µg/mL in [11]; 0.07 µg/mL in [12]; 0.12 µg/mL in assay [13]; 0.14 µg/mL in assay [14]. The EC50 was determined as 0.13 µg/mL in [15], 0.22 µg/mL in assay [16] and 0.33 µg/mL in assay [17].

B4: MPV478 (antibody, V domains shown)
VH: EVQLVQSGAEVKKPGASVKVSCNASGYTFTGYYIHWVRQAPGQGLEWMGWINPRSGGTNYAQKFQGRVTLTRDTSITTAYMDVTRLRPDDTAVYYCATTREGIVLMPRGRGDDALDTWGQGTTVIVSS
VL: DIVMTQSPVSLTVSLGERATINCKSSQSVLSTSNNENYLAWYQQKPGQPPNLLIYWASTRESGVPDRFSGSGSGTDFTLTISSLQAEDVAVYYCQQYFATPITFGPGTKVDVK
Consider B4, for which the 50% effective concentration (EC50) in assay [9] worked out at 0.059 µg/mL; in assay [10], 0.012 µg/mL; in assay [11], 0.024 µg/mL; in assay [12], 0.021 µg/mL; in assay [13] it was 0.022 µg/mL; in assay [14] it was 0.02 µg/mL. Moreover, the results for the EC50 in assay [15], in [16] and in assay [17] were 0.02 µg/mL, 0.027 µg/mL and 0.02 µg/mL, respectively.

B5: MPV464 (antibody, V domains shown)
VH: QVQLQESGPGLVKPSQTLSLTCTVSGGSVRGGGDYWSWIRRPPGKGLEWIGHIYNSGTTFYNPSLKSRVTISIDTSKNQFSLKLRSVTAADTAVYYCGRVGSRATGLPDWIDPWGQGTLVTVSS
VL: SYELTQPPSVSVSPGQTATITCSGTNLGAKYSCWYQQKPGQSPVLVIFQDNKRASGIPARFSASTSGDTATLTISGTQVMDEADYFCQAWDSRTAVFGGGTTLTVL
With B5, the EC50 in assay [9] amounted to 0.28 µg/mL; in assay [10], 0.067 µg/mL; in assay [11] it was 0.24 µg/mL; in [12] it was 0.083 µg/mL; in assay [13], 0.086 µg/mL; in assay [14], 0.12 µg/mL. For the same molecule, the figures for the EC50 in assay [15], in assay [16] and in assay [17] were 0.098 µg/mL, 0.98 µg/mL and 0.29 µg/mL, respectively.

B6: MPV467 Fab (Fab, V domains shown)
VH: EVQLVESGGGVVRPGTSLRVSCAAFDFNFRDYGMHWVRQAPGKGLEWVAGIWYDGSNKDYADSVKGRFTISRDNSQNTLYLQMNSLRVEDTAVYYCARDPRTHREGALSHFDSWGQGTLVTVSS
VL: PNELTQDPAVSVALGQTVRITCQGDSLRNYFAGWYQQKPGQAPLLVLYGENIRPSGIPDRFSGSSSGNTVSLTITGAQAEDEADYYCNSRDNSGNHWVFGGGTRLTVL
Take B6: in [18], the buried surface area on hMPV F (heavy chain) stood at 567 Å^2 and the buried surface area on hMPV F (light chain) is 322 Å^2.
